According to article PMC4947441:

Substrate: CCCC(=O)OP(=O)(O)O
Test: purified protein
Assay type: biochemical, Listeria monocytogenes
Conditions: 500 µM CoA, 100 mM Tris pH 7.5, 25 °C

B1: Ptb (phosphotransbutyrylase, LmPtb) (Listeria monocytogenes EGD-e) (protein)
chain: MTKSRFFSDVAETSSFVFAVAGADDEVVLETIRLALKQKLGKFLLFGKKEDKTLTANESVTWIQTDTAEAAAQGAILAVKNKEADILVKGFIPTATLMHHVLKKENGLRTDQLLSQIAIFDIPTYHKPLLITDCAMNVAPKTKEKIAITENALAVAHQIGITNPKIALLSAVEEVTAKMPSTLEAQEVVQHFGNQISVSGPLALDVAISKEAALHKGITDSSAGEADILIAPNIETGNALYKSLVYFAGAKVGSAVVGAKVPIVISSRNDSPENKLASFILTVRLVEK
B1 was tested, and the Km was 1040 µM.
